Patent US20180208675A1 (Novo Nordisk, published 2018)
Substitutions are numbered along the chain they refer to. Blank lines part the entries; values can stand above or below the binder they belong to.

Experiments:
[1] = target: T1, human TFPI alpha (full-length TFPIα) (human, UniProt P10646 29-304); experiment: SPR (Biacore T200), Fab-Fab conjugate captured on Human Fab Binder, TFPIα in solution, 1:1 fit
T1 construct: Analyte in SPR and added to plasma (2 or 20 nM) in thrombin generation assays; also called human TFPIα
Excerpt: (§1) Binding interaction analysis was obtained by Surface Plasmon Resonance in a Biacore T200 instrument. Human Fab Binder (Human Fab Capture Kit, GE Healthcare) was immobilized to a series S CM4 sensor chip (GE Healthcare) in flow-cells 1-4 at 10000 response units (RU) using the amine coupling protocol available within the Biacore T-200 control software (GE Healthcare) and the reagents provided with the Amine Coupling Kit (GE Healthcare).The relevant Fab fragment or Fab-Fab conjugate was captured in flow-cell 2, 3 or 4 at a fixed concentration. Different concentrations of TFPI were tested by diluting TFPI in the running buffer (10 mM Hepes, pH 7.4, 300 mM NaCl, 5 mM CaCl₂, 0.05% Surfactant P20, 1 mg/ml BSA). Each sample was assayed using 300 seconds of contact time followed by 600 seconds of dissociation time at 50 μl/min flow rate. A buffer blank was also assayed. The sensor surface was regenerated with 10 mM Glycine pH 2.1 with two cycles each of 30 seconds at 50 μl/min flow rate.
(§2) Biacore T200 Evaluation software was used to analyse the data. Determination of binding constants (kₒₙ, koff, KD) was obtained assuming a 1:1 interaction of TFPI and the Fab variant or Fab-Fab conjugate of interest.

[2] = target: T1, human TFPI alpha (full-length TFPIα); experiment: SPR (Biacore T200), Fab captured on Human Fab Binder, TFPIα in solution, 1:1 fit
Excerpt: as §1, §2

- Kd [1]: 0.038 nM
- koff [1]: 0.00023 s⁻¹
- kon [1]: 6.1e+06 M⁻¹ s⁻¹
B1: Fab 0095-Fab 0089 conjugate 9005 (bispecific antibody)
heavy 1: EVQLVESGGGLVKPGGSLRLSCAASGFTFSNYAMSWVRQAPGKGLEWVSTISRSGSYSYYADSVKGRFTISRDNAKNSLYLQMNSLRAEDTAVYYCARLGGYDEGDAMDSWGQGTTVTVSSASTKGPSVFPLAPCSRSTSESTAALGCLVKDYFPEPVTVSWNSGALTSGVHTFPAVLQSSGLYSLSSVVTVPSSSLGTKTYTCNVDHKPSNTKVDKRVESKYGPPC
light 1: DIVMTQTPLSLSVTPGQPASISCKSSQSLLESDGKTYLNWLLQRPGESPKLLIYLVSILDSGVPDRFSGSGSGTDFTLKISRVEAEDVGVYYCLQATHFPQTFGGGTKVEIKRTVAAPSVFIFPPSDEQLKSGTASVVCLLNNFYPREAKVQWKVDNALQSGNSQESVTEQDSKDSTYSLSSTLTLSKADYEKHKVYACEVTHQGLSSPVTKSFNRGEC
heavy 2: QVQLQQSGAELVKPGASVKLSCKASGYTFISYYMYWVKQRPGQGLEWIGEINPSNGDTNLNEKFKSKATLTVDKSSSTVYMQLSSLTSEDSAVYYCTRWDRFDGFVYWGQGTLVTVSAASTKGPSVFPLAPCSRSTSESTAALGCLVKDYFPEPVTVSWNSGALTSGVHTFPAVLQSSGLYSLSSVVTVPSSSLGTKTYTCNVDHKPSNTKVDKRVESKYGPPC
light 2: ETTVTQSPASLSMAIGGKVTIRCIISTNIDDDINWYQQKPGEPPKLLISEGNTLRPGVPSRFSSSGYGTDFVFTIENMLSEDVADYYCLQSDDLPYTFGGGTKLEIKRTVAAPSVFIFPPSDEQLKSGTASVVCLLNNFYPREAKVQWKVDNALQSGNSQESVTEQDSKDSTYSLSSTLTLSKADYEKHKVYACEVTHQGLSSPVTKSFNRGEC
modifications: C-terminal cysteine coupled through the bis-maleimide linker to the Fab 0095 heavy chain; C-terminal cysteine coupled through 1,16-N,N'-bis(maleimido)-4,13-diaza-7,10-dioxa-3,14-dioxohexadecane to the C-terminal cysteine of the Fab 0089 heavy chain
notes: KPI-2/KPI-3; also called Fab 0095-Fab 0089 (9005)

- Kd [1]: 0.17 nM
- koff [1]: 0.0067 s⁻¹
- kon [1]: 4e+07 M⁻¹ s⁻¹
B2: Fab 0313-Fab 0089 conjugate 9031 (bispecific antibody)
heavy 1: B1 heavy 1
light 1: B1 light 1 with L41Y, R44K, E47Q, K50Q
heavy 2: B1 heavy 2
light 2: B1 light 2
modifications: C-terminal cysteine coupled through the bis(acetyl)ethylene diamine linker to the Fab 0313 heavy chain; C-terminal cysteine coupled through bis(bromoacetyl)ethylene diamine to the C-terminal cysteine of the Fab 0089 heavy chain
notes: KPI-2/KPI-3; also called Fab 0313-FAb 0089 (9031)

- Kd [2]: 1.7 nM
B3: Fab 2F22 (Fab, V domains shown)
VH: QVQLKQSGPGLVQPSQSLSITCTVSGFSLTNYGVHWVRQSPGKGLEWLAVIWRGGSIDYNAAFMSRLSITKDNSKSQVFFKMNSLQADDTAIYYCAKNSHGNYVGYAMDYWGQGTSVTVSS
VL: GIVMTQSQKFMSTTVGDRVSITCKASQSVGPAVAWYQQKPGQSPKLLIYSASNRYTGVPDRFTGSGSGADFTLTISNLHSEDLADYFCQQYTSYPTFGGGTKLEIKR
notes: KPI-1 specific; HC truncated after the hinge cysteine; also called Fab fragment 2F22; extended Fab 2F22 (Fab for chemical coupling)
